# From patent US9951356B2, “Processes to prepare elongated 2-ketoacids and C6-C10 compounds therefrom via genetic modifications to microbial metabolic pathways” (Dow Global Technologies LLC, priority 2013, dated 2018)
# Columns and labels:
# Assay type in all cases: biochemical
# [1] = HTP screening assay of LeuB variants, 3-IPM; conditions: 750 μM 3-IPM, 2 mM NAD+, pH 8.0, 25° C.; mean of duplicates
# Procedure: (§1) The evaluation of the LeuB variants is performed in two steps using the high-throughput enzyme assay described below. Initially, all of the variants are screened for activity against a single high concentration of 3-IPM, 3-BM and 3-HM. Following the initial evaluation, detailed kinetic analysis is performed on a select number of variants to determine the maximal rate (kcat), Michaelis-Menten constant (KM), and the catalytic efficiency of the variant enzymes (kcat/KM).
# (§2) A suitable spectrophotometric LeuB enzyme assay is adapted into a high-throughput format in 96-well plates for the kinetic evaluation of LeuB and its variants (shown in Table 1) against 3-isopropylmalate (3-IPM), 3-butylmalate (3-BM), and 3-hexylmalate (3-HM). See, for example, Hsu, Y.; Kohlhaw, G. B. “Leucine biosynthesis in Saccharomyces cerevisiae. Purification and characterization of beta-isopropylmalate dehydrogenase,” J. Biol. Chem., 1980, 255:7255-7260. Steady state kinetic parameters (kcat, KM and kcat/KM) for the oxidative decarboxylation of the three substrates by the variants are determined in these experiments.
# (§3) The HTP screening assay involves incubating 750 micromoles (μM) of 3-IPM, 1 mM 3-BM or 1 mM 3-HM, with 2 mM nicotinamide adenine dinucleotide (NAD^+) in LeuB assay buffer (50 mM 4-(2-hydroxyethyl) piperazine-1-ethanesulfonic acid (HEPES), pH 8.0, containing 30 mM potassium chloride (KCl) and 5 mM magnesium chloride (MgCl2)) at 25° C. The reaction is started by the addition at 25° C. of working enzyme stock containing from 0.3 microgram (μg) to 1.1 μg of LeuB variant diluted in assay buffer containing 1 mM DTT and 1 milligram per milliliter (mg/mL) bovine serum albumin (BSA). The plate containing the 200 μL of reaction mixture is centrifuged at 2500×g for 15 seconds (sec) and the absorbance change of the reaction mixture is followed spectrophotometrically at 340 nm on a BioTek™ plate reader, pre-equilibrated at 25° C. Initial velocity of the enzyme reaction is calculated from the rate of NADH production at 340 nm and using the extinction coefficient of NADH (6.22 per millimolar per centimeter (mM^−1cm^−1)). The activity of all the variants is normalized with the amount of enzyme present in the reaction mixture and expressed as nanomoles per minute per microgram (nmol·min^−1·μg^−1) (Table 2). Protein concentrations for normalizing the activities are determined using the 660 nm total protein assay kit acquired from Pierce Biotechnology Inc.™, available from Thermo Fisher Scientific, Inc., and using BSA as the standard.
# [2] = HTP LeuB kinetic assay, oxidative decarboxylation of 3-IPM; conditions: less efficient than wild type LeuB
# Procedure: as §1, §2
# (§4) The HTP kinetic assay involves incubating eight varied concentrations, of 3-IPM (from 0 to 1.2 mM) or 3-BM (from 0 to 2 mM) or 3-HM (from 0 to 2 mM), with 2 mM NAD^+ in LeuB assay buffer (50 mM HEPES, pH 8.0, containing 30 mM KCl and 5 mM MgCl2) at 25° C. The reaction is started by adding from 0.008 μg to 0.5 μg of LeuB variant which has been pre-diluted in assay buffer containing 1 mM DTT and 1 mg/mL BSA. The plate containing the 200 μl of reaction mixture is centrifuged at 2500×g for 15 sec and the absorbance change is followed spectrophotometrically at 340 nm on a BioTek™ plate reader maintained at 25° C. Initial velocity of the enzyme reaction is calculated from the rate of NADH production at 340 nm and using the extinction coefficient of NADH (6.22 mM^−1cm^−1). The kinetic parameters (kcat, KM and kcat/KM) of oxidative decarboxylation of 3-alkylmalate are determined by fitting the data to the Michaelis-Menten equation using nonlinear regression performed using the GraphPad Prism™ software. Table 3 lists the kinetic parameters of the wild type and engineered variants against the three substrates. The amount of enzyme in the reaction mixture is determined using the 660 nm total protein assay kit acquired from Pierce Biotechnology Inc.™, using BSA as the standard.
# [3] = HTP screening assay of LeuB variants, 3-BM; conditions: 1 mM 3-BM, 2 mM NAD+, pH 8.0, 25° C.; mean of duplicates
# Procedure: as §1, §2, §3
# [4] = HTP LeuB kinetic assay, oxidative decarboxylation of 3-HM; conditions: for increase in efficiency of capturing 3-HM compared with the wild type enzyme: more efficient than wild type LeuB; for Km / kcat: substrate 3-HM, mean ± S.D.
# Procedure: as §1, §2, §4
# [5] = HTP screening assay of LeuB variants, 3-HM; conditions: for Specific activity, 3-HM: 1 mM 3-HM, 2 mM NAD+, pH 8.0, 25° C., mean of duplicates; for activity against 3-HM compared with the wild type enzyme: screening at single high concentration
# Procedure: as §1, §2, §3
# [6] = HTP LeuB kinetic assay, oxidative decarboxylation of 3-BM; conditions: substrate 3-BM; mean ± S.D.
# Procedure: as §1, §2, §4
Molecule,"Specific activity, 3-IPM [1]",decrease in efficiency of capturing 3-IPM compared with the wild type enzyme [2],"Specific activity, 3-BM [3]",increase in efficiency of capturing 3-HM compared with the wild type enzyme [4],Km [4],kcat [4],"Specific activity, 3-HM [5]",activity against 3-HM compared with the wild type enzyme [5],Km [6],kcat [6]
"V198A: E. coli LeuB variant with Val-198 replaced with alanine (protein, UniProt P30125 2-363, looked up, variant V198A) 3-isopropylmalate …: SKNYHIAVLPGDGIGPEVMTQALKVLDAVRNRFAMRITTSHYDVGGAAIDNHGQPLPPATVEGCEQADAVLFGSVGGPKWEHLPPDQQPERGALLPLRKHFKLFSNLRPAKLYQGLEAFCPLRADIAANGFDILCVRELTGGIYFGQPKGREGSGQYEKAFDTEVYHRFEIERIARIAFESARKRRHKVTSIDKANALQSSILWREIVNEIATEYPDVELAHMYIDNATMQLIKDPSQFDVLLCSNLFGDILSDECAMITGSMGMLPSASLNEQGFGLYEPAGGSAPDIAGKNIANPIAQILSLALLLRYSLDADDAACAIERAINRALEEGIRTGDLARGAAAVSTDEMGDIIARYVAEGV",2.83 nmol/min/µg,"1,000 fold",1.81 nmol/min/µg,5 fold,110 ± 10 µM,1.62 ± 0.55 s⁻¹,2.5 nmol/min/µg,higher activity than the wild type enzyme,–,–
"L96G/V198A: E. coli LeuB variant with Leu-96 replaced with glycine and Val-198 with alanine (protein, UniProt P30125 2-363, looked up, variant L96G V198A) 3-isopropylmalate …: SKNYHIAVLPGDGIGPEVMTQALKVLDAVRNRFAMRITTSHYDVGGAAIDNHGQPLPPATVEGCEQADAVLFGSVGGPKWEHLPPDQQPERGALGPLRKHFKLFSNLRPAKLYQGLEAFCPLRADIAANGFDILCVRELTGGIYFGQPKGREGSGQYEKAFDTEVYHRFEIERIARIAFESARKRRHKVTSIDKANALQSSILWREIVNEIATEYPDVELAHMYIDNATMQLIKDPSQFDVLLCSNLFGDILSDECAMITGSMGMLPSASLNEQGFGLYEPAGGSAPDIAGKNIANPIAQILSLALLLRYSLDADDAACAIERAINRALEEGIRTGDLARGAAAVSTDEMGDIIARYVAEGV",–,–,1.49 nmol/min/µg,102 fold,50 ± 0.5 µM,14.6 ± 0.383 s⁻¹,20.4 nmol/min/µg,higher activity than the wild type enzyme,3300 ± 400 µM,4.47 ± 0.35 s⁻¹
"V198G: E. coli LeuB variant with Val-198 replaced with glycine (protein, UniProt P30125 2-363, looked up, variant V198G) 3-isopropylmalate …: SKNYHIAVLPGDGIGPEVMTQALKVLDAVRNRFAMRITTSHYDVGGAAIDNHGQPLPPATVEGCEQADAVLFGSVGGPKWEHLPPDQQPERGALLPLRKHFKLFSNLRPAKLYQGLEAFCPLRADIAANGFDILCVRELTGGIYFGQPKGREGSGQYEKAFDTEVYHRFEIERIARIAFESARKRRHKVTSIDKANGLQSSILWREIVNEIATEYPDVELAHMYIDNATMQLIKDPSQFDVLLCSNLFGDILSDECAMITGSMGMLPSASLNEQGFGLYEPAGGSAPDIAGKNIANPIAQILSLALLLRYSLDADDAACAIERAINRALEEGIRTGDLARGAAAVSTDEMGDIIARYVAEGV",4.66 nmol/min/µg,–,1.83 nmol/min/µg,–,–,–,0.5 nmol/min/µg,–,–,–
"L96A/V198A: E. coli LeuB variant with Leu-96 and Val-198 both replaced with alanine (protein, UniProt P30125 2-363, looked up, variant L96A V198A) 3-isopropylmalate …: SKNYHIAVLPGDGIGPEVMTQALKVLDAVRNRFAMRITTSHYDVGGAAIDNHGQPLPPATVEGCEQADAVLFGSVGGPKWEHLPPDQQPERGALAPLRKHFKLFSNLRPAKLYQGLEAFCPLRADIAANGFDILCVRELTGGIYFGQPKGREGSGQYEKAFDTEVYHRFEIERIARIAFESARKRRHKVTSIDKANALQSSILWREIVNEIATEYPDVELAHMYIDNATMQLIKDPSQFDVLLCSNLFGDILSDECAMITGSMGMLPSASLNEQGFGLYEPAGGSAPDIAGKNIANPIAQILSLALLLRYSLDADDAACAIERAINRALEEGIRTGDLARGAAAVSTDEMGDIIARYVAEGV",0.65 nmol/min/µg,–,1.26 nmol/min/µg,12 fold,80 ± 10 µM,2.65 ± 0.067 s⁻¹,3.3 nmol/min/µg,higher activity than the wild type enzyme,–,–
"L96V: E. coli LeuB variant with Leu-96 replaced with valine (protein, UniProt P30125 2-363, looked up, variant L96V) 3-isopropylmalate …: SKNYHIAVLPGDGIGPEVMTQALKVLDAVRNRFAMRITTSHYDVGGAAIDNHGQPLPPATVEGCEQADAVLFGSVGGPKWEHLPPDQQPERGALVPLRKHFKLFSNLRPAKLYQGLEAFCPLRADIAANGFDILCVRELTGGIYFGQPKGREGSGQYEKAFDTEVYHRFEIERIARIAFESARKRRHKVTSIDKANVLQSSILWREIVNEIATEYPDVELAHMYIDNATMQLIKDPSQFDVLLCSNLFGDILSDECAMITGSMGMLPSASLNEQGFGLYEPAGGSAPDIAGKNIANPIAQILSLALLLRYSLDADDAACAIERAINRALEEGIRTGDLARGAAAVSTDEMGDIIARYVAEGV",1.53 nmol/min/µg,–,–,–,–,–,–,–,–,–
"L96G/V198G: E. coli LeuB variant with Leu-96 and Val-198 both replaced with glycine (protein, UniProt P30125 2-363, looked up, variant L96G V198G) 3-isopropylmalate …: SKNYHIAVLPGDGIGPEVMTQALKVLDAVRNRFAMRITTSHYDVGGAAIDNHGQPLPPATVEGCEQADAVLFGSVGGPKWEHLPPDQQPERGALGPLRKHFKLFSNLRPAKLYQGLEAFCPLRADIAANGFDILCVRELTGGIYFGQPKGREGSGQYEKAFDTEVYHRFEIERIARIAFESARKRRHKVTSIDKANGLQSSILWREIVNEIATEYPDVELAHMYIDNATMQLIKDPSQFDVLLCSNLFGDILSDECAMITGSMGMLPSASLNEQGFGLYEPAGGSAPDIAGKNIANPIAQILSLALLLRYSLDADDAACAIERAINRALEEGIRTGDLARGAAAVSTDEMGDIIARYVAEGV",0.02 nmol/min/µg,–,0.08 nmol/min/µg,–,–,–,3.6 nmol/min/µg,higher activity than the wild type enzyme,–,–
"L96V/V198G: E. coli LeuB variant with Leu-96 replaced with valine and Val-198 with glycine (protein, UniProt P30125 2-363, looked up, variant L96V V198G) 3-isopropylmalate …: SKNYHIAVLPGDGIGPEVMTQALKVLDAVRNRFAMRITTSHYDVGGAAIDNHGQPLPPATVEGCEQADAVLFGSVGGPKWEHLPPDQQPERGALVPLRKHFKLFSNLRPAKLYQGLEAFCPLRADIAANGFDILCVRELTGGIYFGQPKGREGSGQYEKAFDTEVYHRFEIERIARIAFESARKRRHKVTSIDKANGLQSSILWREIVNEIATEYPDVELAHMYIDNATMQLIKDPSQFDVLLCSNLFGDILSDECAMITGSMGMLPSASLNEQGFGLYEPAGGSAPDIAGKNIANPIAQILSLALLLRYSLDADDAACAIERAINRALEEGIRTGDLARGAAAVSTDEMGDIIARYVAEGV",0.05 nmol/min/µg,–,0.04 nmol/min/µg,–,–,–,–,–,–,–
